From publication PMC9064986 come the findings set out here.

The term Kd denotes the constant that tells how readily two partners part at equilibrium. Usually koff stands for the rate constant with which the complex falls apart.

Experiment [1] addresses T1, Recombinant human BMP10 growth factor (GF)-domain (R&D Systems), O95393.
T1 chain: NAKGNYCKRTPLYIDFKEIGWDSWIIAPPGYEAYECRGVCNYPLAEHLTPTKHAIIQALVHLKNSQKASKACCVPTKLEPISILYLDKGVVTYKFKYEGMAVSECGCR
Nature of the experiment: SPR (Biacore). The following applies: chain shown with the change, BMP10 immobilised on a CM5 Biacore chip. On the technique in general: Surface plasmon resonance follows binding to a sensor surface in real time, without labels.

Experiment [2] addresses T2, BMP10 growth factor (GF)-domain from Pro:BMP10 made in HEK EBNA cells, O95393.
T2 chain: T1 chain
As to the kind of experiment: ELISA (prodomain displacement). To be noted: chain shown with the change; BMPRII ECD at 125x excess over Pro:BMP10; lower reading = more prodomain displaced; parent: est. 0.42; read off a plot. On the technique in general: In an ELISA, binding on a coated surface is turned into a signal by an enzyme label.

For experiment [3], the target named is T2, BMP10 growth factor (GF)-domain from …. As to the kind of experiment: native PAGE prodomain displacement (densitometry). The following applies: chain shown with the change, lower ratio = more prodomain displaced, read off a plot.

B1: BMPRII extracellular domain (ECD), wild type, Q13873-1 ΔGDP (del of Gly, Asp and Pro in the A-loop) (protein)
chain: SQNQERLCAFKDPYQQDLGIGESRISHENGTILCSKGSTCYGLWEKSKGDINLVKQGCWSHIQECHYEECVVTTTPPSIQNGTYRFCCCSTDLCNVNFTENFPPPDTTPLSPPHSFNRDET
In the case of B1, in experiment [1] (parent: 1.19E-06 M), the Kd is 1.17 µM. The koff in experiment [1] (parent: 1.61E-01 s-1) stood at 0.0583 s⁻¹. The other: OD reading, normalized to no BMPRII control in experiment [2] was 0.62. In addition, the other: Pro:BMP10/prodomain ratio, normalized to no BMPRII control turned out to be 0.94 in experiment [3] (BMPRII ECD at 2-fold excess (2x) over Pro:BMP10, parent: est. 0.59) and 0.74 in experiment [3] (BMPRII ECD at 5-fold excess (5x) over Pro:BMP10, parent: est. 0.46).
